In paper doi:10.1101/2025.03.14.643221:
One block for each substance: values may come before it.

Key:
[1] = tested on: LmuA(K68A), LmuA-KA;LmuB;LmuC; assay: fluorescence anisotropy
[2] = biological target: SalEnt LmuA(K68A), catalytically dead nuclease effector, tag cleaved (Salmonella enterica subsp. enterica serovar Tennessee (strain TXSC_TXSC08-19)); assay: cryo-EM structure
[3] = biological target: SalEnt LmuB, SMC-like (Rad50-like) ABC ATPase (Salmonella enterica subsp. enterica serovar Tennessee (strain TXSC_TXSC08-19)); assay: cryo-EM structure

Substance: 40-mer dsDNA 6-FAM
Kd [1]: 180 nM

Substance: SalEnt LmuA(K68A), catalytically dead nuclease effector, tag cleaved (enzyme)
stoichiometry N [2]: 4

stoichiometry N [3]: 2
Substance: SalEnt LmuB, SMC-like (Rad50-like) ABC ATPase (natural protein)
